Data published in patent publication US20190359662A1.

Key:
Experiment in all cases: cell-based or functional assay
[1] = target: hNav1.1 (human) (UniProt P35498)
[2] = target: hNav1.8 (human) (UniProt Q9Y5Y9)
[3] = target: hNav1.5 (human) (UniProt Q14524)
[4] = target: hNav1.2 (human) (UniProt Q99250)
[5] = target: hNav1.3 (human) (UniProt Q9NY46)
[6] = target: hNav1.4 (human) (UniProt P35499)
[7] = target: hNav1.7 (human) (UniProt Q15858)
[8] = target: hNav1.6 (human) (UniProt Q9UQD0)
[9] = target: hNav1.9 (human) (UniProt Q9UI33)

hNav1.5 (human), sequence (Q14524 whole entry): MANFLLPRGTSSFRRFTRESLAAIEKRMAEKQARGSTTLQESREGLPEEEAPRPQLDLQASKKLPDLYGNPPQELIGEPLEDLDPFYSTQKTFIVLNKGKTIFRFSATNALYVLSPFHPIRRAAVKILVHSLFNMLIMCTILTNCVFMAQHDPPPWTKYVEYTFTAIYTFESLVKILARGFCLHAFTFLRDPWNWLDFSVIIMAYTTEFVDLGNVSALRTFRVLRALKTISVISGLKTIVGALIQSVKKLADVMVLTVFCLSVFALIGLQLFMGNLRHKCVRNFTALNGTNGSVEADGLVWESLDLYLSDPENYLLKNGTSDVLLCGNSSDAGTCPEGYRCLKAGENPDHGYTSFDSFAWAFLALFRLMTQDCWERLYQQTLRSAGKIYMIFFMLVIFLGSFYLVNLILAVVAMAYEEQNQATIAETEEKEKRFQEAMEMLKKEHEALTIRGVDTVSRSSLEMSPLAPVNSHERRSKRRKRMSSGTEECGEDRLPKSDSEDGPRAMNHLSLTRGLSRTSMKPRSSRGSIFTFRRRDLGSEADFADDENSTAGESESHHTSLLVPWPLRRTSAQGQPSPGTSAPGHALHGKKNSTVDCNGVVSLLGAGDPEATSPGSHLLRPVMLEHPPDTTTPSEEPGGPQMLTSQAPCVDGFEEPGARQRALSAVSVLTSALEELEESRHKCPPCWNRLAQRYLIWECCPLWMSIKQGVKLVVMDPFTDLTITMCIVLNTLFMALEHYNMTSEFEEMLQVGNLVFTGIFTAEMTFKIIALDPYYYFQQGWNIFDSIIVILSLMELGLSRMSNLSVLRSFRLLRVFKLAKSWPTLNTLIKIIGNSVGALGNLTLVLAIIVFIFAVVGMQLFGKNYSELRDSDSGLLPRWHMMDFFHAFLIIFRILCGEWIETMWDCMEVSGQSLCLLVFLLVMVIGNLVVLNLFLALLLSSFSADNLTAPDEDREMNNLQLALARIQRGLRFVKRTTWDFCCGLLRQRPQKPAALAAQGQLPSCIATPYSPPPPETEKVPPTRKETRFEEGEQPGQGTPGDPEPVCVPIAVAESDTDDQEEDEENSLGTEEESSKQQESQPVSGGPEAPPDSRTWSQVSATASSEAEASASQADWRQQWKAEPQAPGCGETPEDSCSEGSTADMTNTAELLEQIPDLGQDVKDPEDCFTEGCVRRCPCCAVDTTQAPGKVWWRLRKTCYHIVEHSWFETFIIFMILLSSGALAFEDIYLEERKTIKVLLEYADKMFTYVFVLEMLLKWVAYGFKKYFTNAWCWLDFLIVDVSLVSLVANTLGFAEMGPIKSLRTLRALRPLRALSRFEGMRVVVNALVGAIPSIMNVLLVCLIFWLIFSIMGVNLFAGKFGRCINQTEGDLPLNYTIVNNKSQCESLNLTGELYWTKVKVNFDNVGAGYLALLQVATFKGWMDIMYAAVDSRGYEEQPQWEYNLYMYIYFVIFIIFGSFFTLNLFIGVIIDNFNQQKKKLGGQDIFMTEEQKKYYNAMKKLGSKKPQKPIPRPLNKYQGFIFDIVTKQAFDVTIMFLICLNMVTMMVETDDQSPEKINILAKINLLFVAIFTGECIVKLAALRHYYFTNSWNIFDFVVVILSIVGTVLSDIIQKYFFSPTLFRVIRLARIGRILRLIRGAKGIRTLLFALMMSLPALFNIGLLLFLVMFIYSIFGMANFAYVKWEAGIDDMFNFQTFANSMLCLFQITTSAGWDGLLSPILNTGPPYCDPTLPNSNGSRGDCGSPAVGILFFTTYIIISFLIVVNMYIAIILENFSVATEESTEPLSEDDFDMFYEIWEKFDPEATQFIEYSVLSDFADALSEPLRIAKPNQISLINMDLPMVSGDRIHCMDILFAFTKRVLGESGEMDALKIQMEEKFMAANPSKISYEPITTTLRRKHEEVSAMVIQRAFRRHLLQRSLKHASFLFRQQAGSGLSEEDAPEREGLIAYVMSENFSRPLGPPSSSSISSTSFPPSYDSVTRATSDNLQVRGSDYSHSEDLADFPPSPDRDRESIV
hNav1.6 (human), sequence (Q9UQD0 whole entry): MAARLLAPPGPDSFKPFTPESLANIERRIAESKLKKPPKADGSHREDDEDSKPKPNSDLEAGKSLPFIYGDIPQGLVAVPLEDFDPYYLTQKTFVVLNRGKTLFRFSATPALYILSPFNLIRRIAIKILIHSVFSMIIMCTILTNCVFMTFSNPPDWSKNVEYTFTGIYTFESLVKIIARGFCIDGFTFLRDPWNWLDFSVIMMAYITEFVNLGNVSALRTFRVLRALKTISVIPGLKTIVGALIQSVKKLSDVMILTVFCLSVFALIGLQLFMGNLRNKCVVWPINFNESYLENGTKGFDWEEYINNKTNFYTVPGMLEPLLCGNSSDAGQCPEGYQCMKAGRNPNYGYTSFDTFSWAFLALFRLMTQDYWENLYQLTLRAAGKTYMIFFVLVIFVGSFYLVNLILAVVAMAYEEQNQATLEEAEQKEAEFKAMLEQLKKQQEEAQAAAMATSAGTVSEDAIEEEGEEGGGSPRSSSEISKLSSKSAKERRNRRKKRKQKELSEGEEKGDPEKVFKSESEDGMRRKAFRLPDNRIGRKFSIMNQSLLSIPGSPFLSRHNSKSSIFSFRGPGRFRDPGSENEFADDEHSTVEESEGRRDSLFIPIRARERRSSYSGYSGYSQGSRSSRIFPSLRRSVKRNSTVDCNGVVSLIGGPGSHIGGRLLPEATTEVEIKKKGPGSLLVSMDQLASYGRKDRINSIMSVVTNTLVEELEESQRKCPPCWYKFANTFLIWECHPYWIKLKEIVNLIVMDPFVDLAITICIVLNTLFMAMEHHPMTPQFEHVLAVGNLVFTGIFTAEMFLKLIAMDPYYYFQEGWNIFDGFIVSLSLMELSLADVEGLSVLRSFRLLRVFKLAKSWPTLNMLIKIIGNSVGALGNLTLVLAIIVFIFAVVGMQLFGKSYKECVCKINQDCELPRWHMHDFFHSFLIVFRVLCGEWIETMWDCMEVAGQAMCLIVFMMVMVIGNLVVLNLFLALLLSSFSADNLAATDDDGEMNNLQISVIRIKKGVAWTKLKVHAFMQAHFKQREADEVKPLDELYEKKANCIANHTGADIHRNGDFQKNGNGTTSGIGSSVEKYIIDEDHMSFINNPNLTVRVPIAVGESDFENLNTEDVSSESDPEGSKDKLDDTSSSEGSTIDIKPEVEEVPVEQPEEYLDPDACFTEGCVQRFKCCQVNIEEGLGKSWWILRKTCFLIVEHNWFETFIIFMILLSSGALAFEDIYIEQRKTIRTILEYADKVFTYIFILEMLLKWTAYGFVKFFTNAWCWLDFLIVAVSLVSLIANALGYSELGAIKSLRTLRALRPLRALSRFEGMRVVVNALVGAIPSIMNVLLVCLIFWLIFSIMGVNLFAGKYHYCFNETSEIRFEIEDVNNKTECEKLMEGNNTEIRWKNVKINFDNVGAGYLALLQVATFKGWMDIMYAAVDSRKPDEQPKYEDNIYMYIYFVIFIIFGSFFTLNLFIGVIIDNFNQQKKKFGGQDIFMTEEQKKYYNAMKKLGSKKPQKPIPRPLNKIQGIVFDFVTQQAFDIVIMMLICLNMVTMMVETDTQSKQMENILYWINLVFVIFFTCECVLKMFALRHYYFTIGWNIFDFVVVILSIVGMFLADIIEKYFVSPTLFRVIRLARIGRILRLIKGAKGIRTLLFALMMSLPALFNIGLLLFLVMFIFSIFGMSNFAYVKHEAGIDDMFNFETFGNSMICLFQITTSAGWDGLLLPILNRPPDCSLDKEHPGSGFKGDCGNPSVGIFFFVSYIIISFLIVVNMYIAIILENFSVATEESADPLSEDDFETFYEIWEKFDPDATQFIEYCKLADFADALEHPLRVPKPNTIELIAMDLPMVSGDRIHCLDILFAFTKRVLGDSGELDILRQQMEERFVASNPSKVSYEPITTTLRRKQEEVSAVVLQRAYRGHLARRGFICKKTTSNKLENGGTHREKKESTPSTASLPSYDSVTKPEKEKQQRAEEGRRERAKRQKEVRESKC

Pnc1a (peptide)
pIC50, automated patch clamp [1]: 7.43 M | pIC50, membrane potential assay [1]: 4.88 M | pIC50, automated patch clamp [2]: 4.32 M | pIC50, membrane potential assay [2]: 4.58 M | pIC50, automated patch clamp [3]: 6.01 M | pIC50, membrane potential assay [3]: 4.07 M | pIC50, automated patch clamp [4]: 6.9 M | pIC50, membrane potential assay [4]: 5.53 M | pIC50, automated patch clamp [5]: 6.68 M | pIC50, membrane potential assay [5]: 5.09 M | pIC50, automated patch clamp [6]: 6.8 M | pIC50, membrane potential assay [6]: 4.95 M | pIC50, automated patch clamp [7]: > 9.04 M | pIC50, automated patch clamp [8]: 6.89 M | pIC50, membrane potential assay [8]: 4.73 M | pIC50, automated patch clamp [9]: 5.63 M
